This is an account of results in patent publication US20030165997, “Zinc finger domain libraries” (published 2003).

Common to all, as to experiment: cell_activity; HEK 293 luciferase
Settings in all cases: tags: HA, NLS

In one series the target is ZFP 57 QSHR2-CSNR1-QSHT (Homo sapiens). The procedure: (§1) The in vivo activity assay for a particular three-finger protein was carried out as follows. HEK 293 cells were transfected with four plasmids: 14 ng of a plasmid expressing the particular three-finger protein; 14 ng of the reporter plasmid described above; 70 ng of a plasmid that expresses GAL4-VP 16; and 1.4 ng of a plasmid that expresses Renillar luciferase. The GAL4-VP 16 activates transcription of the minimal synthetic promoter in the reporter so that the repression effected by a particular three-finger protein could be clearly detected and compared to other three-finger proteins. The plasmid expressing Renillar luciferase provides a control of transfection efficiency.
Chain of ZFP 57 QSHR2-CSNR1-QSHT (Homo sapiens) (chain, as listed by the source): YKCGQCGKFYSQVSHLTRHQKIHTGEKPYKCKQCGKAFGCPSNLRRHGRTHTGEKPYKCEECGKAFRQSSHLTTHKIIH
(§2) Lipofectamine (Gibco-BRL) was used for the transfection procedures. Cells were transfected at 30-50% confluency in wells of a 96 well plate. The cells were incubated for two days prior to harvesting for the luciferase assay. Then luciferase activities were measured using the Dual-Luciferase™ Reporter Assay System (Promega). The observed firefly luciferase activity was normalized using the observed level of Renilla luciferase. The extent of repression or “fold-repression” was calculated by dividing a value for normalized reporter expression in the absence of a zinc finger protein by a value for normalized reporter expression in the presence of the zinc finger protein.
(§3) A total of 153 three-finger chimeric proteins were constructed from both the “zinc finger protein-first” and the “target site-first” approaches. These proteins were tested using the transient cotransfection assay described in Example 68.

The next series addresses ZFP 33 QSNV2-RSHR-RDER1 (Homo sapiens). The procedure:
as §1, §2, §3

Another series addresses ZFP 56 RSNR-VSTR-RSHR (Homo sapiens). Here is the method: as §1, §2, §3
The target in another series is ZFP 58 VSNV-QSHR2-VSTR (Homo sapiens). Here is the method:
as §1, §2, §3

The target in a further series is ZFP 47 RSHR-QSHR2-VSTR (Homo sapiens). Here is the method: as §1, §2, §3
Chain of ZFP 47 RSHR-QSHR2-VSTR (Homo sapiens) (chain, as listed by the source): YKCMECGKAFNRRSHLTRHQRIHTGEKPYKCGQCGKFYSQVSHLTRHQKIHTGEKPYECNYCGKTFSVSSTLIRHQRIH
A further series has as its target ZFP 43 QSSR1-QSNR3-QSHR2 (Homo sapiens). Here is the method: as §1, §2, §3
For the next series, the target named is ZFP 50 RSHR-RDER1-QSNV2 (Homo sapiens). The procedure: as §1, §2, §3
Chain of ZFP 50 RSHR-RDER1-QSNV2 (Homo sapiens) (chain, as listed by the source): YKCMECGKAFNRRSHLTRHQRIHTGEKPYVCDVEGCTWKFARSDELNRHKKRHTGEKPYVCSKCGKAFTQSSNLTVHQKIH
The next series deals with ZFP 65 RSNR-RDER1-RSHR (Homo sapiens). Here is the method: as §1, §2, §3
Chain of ZFP 65 RSNR-RDER1-RSHR (Homo sapiens) (chain, as listed by the source): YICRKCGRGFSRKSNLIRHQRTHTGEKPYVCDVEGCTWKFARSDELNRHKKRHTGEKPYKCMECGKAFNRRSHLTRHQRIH
For the next series, the target named is ZFP 52 QSHR2-QSHT-RSNR (Homo sapiens). The procedure:
as §1, §2, §3

For the next series, the target named is ZFP 46 HSNK-QSHT-RSNR (Homo sapiens). The procedure:
as §1, §2, §3

Another series addresses ZFP 36 RSNR-VSSR-RSNR (Homo sapiens). Here is the method:
as §1, §2, §3

The next series concerns the target ZFP 55 QSNV2-QSHR2-QSNR3 (Homo sapiens). The procedure: as §1, §2, §3
Another series deals with ZFP 64 VSSR-RSHR-ISNR (Homo sapiens). Here is the method:
as §1, §2, §3

The target of the next series is ZFP 49 RSHR-QSNV2-QSHT (Homo sapiens). Here is the method:
as §1, §2, §3

The target of another series is ZFP 48 RDHT-RSHR-RDER1 (Homo sapiens). The procedure:
as §1, §2, §3

For a further series, the target named is ZFP 53 QSHR2-RDHT-CSNR1 (Homo sapiens). The procedure: as §1, §2, §3
Chain of ZFP 53 QSHR2-RDHT-CSNR1 (Homo sapiens) (chain, as listed by the source): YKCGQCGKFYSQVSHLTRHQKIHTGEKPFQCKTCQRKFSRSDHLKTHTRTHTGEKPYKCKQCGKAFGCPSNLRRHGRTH
A further series addresses ZFP 45 HSNK-QSNV2-VSSR (Homo sapiens). Here is the method:
as §1, §2, §3

In another series the target is ZFP 39 VSTR-RSNR-QSHR2 (Homo sapiens). Here is the method:
as §1, §2, §3

For a further series, the target named is ZFP 42 RDHT-QSHR2-QSHT (Homo sapiens). Here is the method: as §1, §2, §3
Chain of ZFP 42 RDHT-QSHR2-QSHT (Homo sapiens) (chain, as listed by the source): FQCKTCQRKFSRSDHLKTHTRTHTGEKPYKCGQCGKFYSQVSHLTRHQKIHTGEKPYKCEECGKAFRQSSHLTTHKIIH
The target of the next series is ZFP 41 QSNR3-RSNR-RSHR (Homo sapiens). Here is the method:
as §1, §2, §3

The target in the next series is ZFP 60 QSNR3-QSSR1-QSNV2 (Homo sapiens). The procedure: as §1, §2, §3
Chain of ZFP 60 QSNR3-QSSR1-QSNV2 (Homo sapiens) (chain, as listed by the source): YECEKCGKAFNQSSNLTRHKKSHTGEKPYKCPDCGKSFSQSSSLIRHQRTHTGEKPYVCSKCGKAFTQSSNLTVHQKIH
The target in a further series is ZFP 62 RDER1-QSSR1-VSTR (Homo sapiens). The procedure:
as §1, §2, §3

The next series deals with ZFP 34 VSSR-HSNK-RSNR (Homo sapiens). The procedure: as §1, §2, §3
Chain of ZFP 34 VSSR-HSNK-RSNR (Homo sapiens) (chain, as listed by the source): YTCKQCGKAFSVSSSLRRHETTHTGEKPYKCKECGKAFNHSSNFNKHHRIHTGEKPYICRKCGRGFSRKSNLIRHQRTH
The target in the next series is ZFP 51 VSNV-QSNV2-QSHT (Homo sapiens). The procedure:
as §1, §2, §3

The next series addresses ZFP 35 VSSR-QSHT-RSHR (Homo sapiens). The procedure:
as §1, §2, §3

Chain of ZFP 33 QSNV2-RSHR-RDER1 (Homo sapiens) (chain, as listed by the source): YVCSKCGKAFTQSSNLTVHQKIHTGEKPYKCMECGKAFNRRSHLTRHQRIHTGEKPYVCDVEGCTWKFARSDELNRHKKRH
Chain of ZFP 36 RSNR-VSSR-RSNR (Homo sapiens) (chain, as listed by the source): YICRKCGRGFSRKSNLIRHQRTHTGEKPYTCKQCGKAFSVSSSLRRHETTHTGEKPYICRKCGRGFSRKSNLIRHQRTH
Chain of ZFP 43 QSSR1-QSNR3-QSHR2 (Homo sapiens) (chain, as listed by the source): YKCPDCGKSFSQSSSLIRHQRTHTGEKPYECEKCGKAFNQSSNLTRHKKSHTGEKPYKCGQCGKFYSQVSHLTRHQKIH
Chain of ZFP 58 VSNV-QSHR2-VSTR (Homo sapiens) (chain, as listed by the source): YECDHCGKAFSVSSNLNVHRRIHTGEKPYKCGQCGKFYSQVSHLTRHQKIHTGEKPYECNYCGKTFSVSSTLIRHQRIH
Chain of ZFP 41 QSNR3-RSNR-RSHR (Homo sapiens) (chain, as listed by the source): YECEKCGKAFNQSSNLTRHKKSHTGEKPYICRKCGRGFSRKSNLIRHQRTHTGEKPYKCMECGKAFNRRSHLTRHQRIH
Chain of ZFP 48 RDHT-RSHR-RDER1 (Homo sapiens) (chain, as listed by the source): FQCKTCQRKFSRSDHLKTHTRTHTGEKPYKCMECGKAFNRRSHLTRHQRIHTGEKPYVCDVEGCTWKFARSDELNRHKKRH
Chain of ZFP 56 RSNR-VSTR-RSHR (Homo sapiens) (chain, as listed by the source): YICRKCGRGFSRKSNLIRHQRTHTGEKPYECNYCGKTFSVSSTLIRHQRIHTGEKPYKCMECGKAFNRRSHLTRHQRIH
Chain of ZFP 64 VSSR-RSHR-ISNR (Homo sapiens) (chain, as listed by the source): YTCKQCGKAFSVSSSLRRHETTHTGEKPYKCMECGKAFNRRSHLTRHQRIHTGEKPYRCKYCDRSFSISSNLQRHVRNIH
Chain of ZFP 52 QSHR2-QSHT-RSNR (Homo sapiens) (chain, as listed by the source): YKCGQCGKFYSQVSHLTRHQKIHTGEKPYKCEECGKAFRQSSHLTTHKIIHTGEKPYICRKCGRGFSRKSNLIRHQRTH
Chain of ZFP 39 VSTR-RSNR-QSHR2 (Homo sapiens) (chain, as listed by the source): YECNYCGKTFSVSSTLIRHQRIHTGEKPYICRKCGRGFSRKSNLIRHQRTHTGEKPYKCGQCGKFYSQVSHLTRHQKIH
Chain of ZFP 55 QSNV2-QSHR2-QSNR3 (Homo sapiens) (chain, as listed by the source): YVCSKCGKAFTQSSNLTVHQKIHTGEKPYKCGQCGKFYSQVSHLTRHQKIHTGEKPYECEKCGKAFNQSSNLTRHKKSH
Chain of ZFP 45 HSNK-QSNV2-VSSR (Homo sapiens) (chain, as listed by the source): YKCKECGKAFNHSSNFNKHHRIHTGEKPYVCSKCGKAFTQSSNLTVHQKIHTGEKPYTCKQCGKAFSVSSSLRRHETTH
Chain of ZFP 62 RDER1-QSSR1-VSTR (Homo sapiens) (chain, as listed by the source): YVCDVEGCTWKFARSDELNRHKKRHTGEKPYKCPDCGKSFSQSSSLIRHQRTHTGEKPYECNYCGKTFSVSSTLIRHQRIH
Chain of ZFP 35 VSSR-QSHT-RSHR (Homo sapiens) (chain, as listed by the source): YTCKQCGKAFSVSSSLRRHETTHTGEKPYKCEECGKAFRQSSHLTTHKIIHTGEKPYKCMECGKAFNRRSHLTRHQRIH
Chain of ZFP 51 VSNV-QSNV2-QSHT (Homo sapiens) (chain, as listed by the source): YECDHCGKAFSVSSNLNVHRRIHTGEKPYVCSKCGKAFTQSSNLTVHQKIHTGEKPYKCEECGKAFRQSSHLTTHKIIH
Chain of ZFP 49 RSHR-QSNV2-QSHT (Homo sapiens) (chain, as listed by the source): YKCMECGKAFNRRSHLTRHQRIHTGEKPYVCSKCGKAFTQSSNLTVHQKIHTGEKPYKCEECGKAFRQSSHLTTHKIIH
Chain of ZFP 46 HSNK-QSHT-RSNR (Homo sapiens) (chain, as listed by the source): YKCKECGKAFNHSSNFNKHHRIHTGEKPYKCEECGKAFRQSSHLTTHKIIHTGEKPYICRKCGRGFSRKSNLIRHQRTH

B1: target 57 (dsDNA)
DNA 1: TGAGACGGAG
DNA 2: CTCCGTCTCA
Consider B1, for which the activity in the series with ZFP 57 QSHR2-CSNR1-QSHT was found to be 1.5 fold repression.

B2: target 33 (dsDNA)
DNA 1: GTGGGGAAAA
DNA 2: TTTTCCCCAC
Consider B2, for which, in the series with ZFP 33 QSNV2-RSHR-RDER1, the activity came out at 1.9 fold repression.

B3: target 56 (dsDNA)
DNA 1: GGGGCTGAGG
DNA 2: CCTCAGCCCC
Take B3: the activity with ZFP 56 RSNR-VSTR-RSHR came to 1.5 fold repression.

B4: target 58 (dsDNA)
DNA 1: GCTGGAAATT
DNA 2: AATTTCCAGC
As for B4, in the series with ZFP 58 VSNV-QSHR2-VSTR, the activity worked out at 1.5 fold repression.

B5: target 47 (dsDNA)
DNA 1: GCTGGAGGGG
DNA 2: CCCCTCCAGC
For the molecule B5, the activity with ZFP 47 RSHR-QSHR2-VSTR stood at 1.7 fold repression.

B6: target 43 (dsDNA)
DNA 1: GGAGAAGTAG
DNA 2: CTACTTCTCC
With B6, the activity in the series with ZFP 43 QSSR1-QSNR3-QSHR2 amounted to 1.7 fold repression.

B7: target 50 (dsDNA)
DNA 1: AAAGTGGGGA
DNA 2: TCCCCACTTT
Molecule B7 came in with an activity with ZFP 50 RSHR-RDER1-QSNV2 of 1.6 fold repression.

B8: target 65 (dsDNA)
DNA 1: GGGGCGGAG
DNA 2: CTCCGCCCC
As to B8, in the series with ZFP 65 RSNR-RDER1-RSHR, the activity came out at 1.5 fold repression.

B9: target 52 (dsDNA)
DNA 1: GAGTGAGGA
DNA 2: TCCTCACTC
B9 showed an activity with ZFP 52 QSHR2-QSHT-RSNR of 1.6 fold repression.

B10: target 46 (dsDNA)
DNA 1: GAGAGAGAC
DNA 2: GTCTCTCTC
On to B10, for which the activity in the series with ZFP 46 HSNK-QSHT-RSNR was found to be 1.7 fold repression.

B11: target 36 (dsDNA)
DNA 1: GAGGTTGAGG
DNA 2: CCTCAACCTC
In the case of B11, in the series with ZFP 36 RSNR-VSSR-RSNR, the activity came out at 1.8 fold repression.

B12: target 55 (dsDNA)
DNA 1: GAAGGAAAAT
DNA 2: ATTTTCCTTC
For B12, the activity with ZFP 55 QSNV2-QSHR2-QSNR3 was determined as 1.6 fold repression.

B13: target 64 (dsDNA)
DNA 1: GATGGGGTTT
DNA 2: AAACCCCATC
In the case of B13, the activity with ZFP 64 VSSR-RSHR-ISNR came to 1.5 fold repression.

B14: target 49 (dsDNA)
DNA 1: AGAAAAGGG
DNA 2: CCCTTTTCT
B14 displayed an activity with ZFP 49 RSHR-QSNV2-QSHT of 1.6 fold repression.

B15: target 48 (dsDNA)
DNA 1: GCGGGGAGGG
DNA 2: CCCTCCCCGC
B15 came in with an activity with ZFP 48 RDHT-RSHR-RDER1 of 1.6 fold repression.

B16: target 53 (dsDNA)
DNA 1: GACAGGGGAG
DNA 2: CTCCCCTGTC
For B16, the activity with ZFP 53 QSHR2-RDHT-CSNR1 was 1.6 fold repression.

B17: target 45 (dsDNA)
DNA 1: GTTCAAGAC
DNA 2: GTCTTGAAC
In the series with ZFP 45 HSNK-QSNV2-VSSR, B17 displayed an activity of 1.7 fold repression.

B18: target 39 (dsDNA)
DNA 1: GGAGAGGCTC
DNA 2: GAGCCTCTCC
Turning to B18, the activity with ZFP 39 VSTR-RSNR-QSHR2 was 1.8 fold repression.

B19: target 42 (dsDNA)
DNA 1: AGAGGAAGGT
DNA 2: ACCTTCCTCT
In the series with ZFP 42 RDHT-QSHR2-QSHT, B19 returned an activity of 1.7 fold repression.

B20: target 41 (dsDNA)
DNA 1: GGGGAGGAAA
DNA 2: TTTCCTCCCC
With B20, in the series with ZFP 41 QSNR3-RSNR-RSHR, the activity came out at 1.7 fold repression.

B21: target 60 (dsDNA)
DNA 1: CAAGTAGAAG
DNA 2: CTTCTACTTG
B21 showed an activity with ZFP 60 QSNR3-QSSR1-QSNV2 of 1.5 fold repression.

B22: target 62 (dsDNA)
DNA 1: GCTGCAGCGT
DNA 2: ACGCTGCAGC
In the case of B22, in the series with ZFP 62 RDER1-QSSR1-VSTR, the activity was determined as 1.5 fold repression.

B23: target 34 (dsDNA)
DNA 1: GAGGACGTG
DNA 2: CACGTCCTC
As to B23, the activity with ZFP 34 VSSR-HSNK-RSNR is 1.9 fold repression.

B24: target 51 (dsDNA)
DNA 1: AGAAAAAATA
DNA 2: TATTTTTTCT
Molecule B24 yielded an activity with ZFP 51 VSNV-QSNV2-QSHT of 1.6 fold repression.

B25: target 35 (dsDNA)
DNA 1: GGGTGAGTG
DNA 2: CACTCACCC
As for B25, in the series with ZFP 35 VSSR-QSHT-RSHR, the activity amounted to 1.9 fold repression.
